{"source": "patent US7335814B2", "about": "“Transgenic cells expressing glucosyltransferase nucleic acids” (The University of York, priority 2000, dated 2008)", "proteins": {"B1": {"name": "recombinant GTase A911 (Arabidopsis thaliana) (protein)", "chain": "MGSSEGQETHVLMVTLPFQGHINPMLKLAKHLSLSSKNLHINLATIESARDLLSTVEKPRYPVDLVFFSDGLPKEDPKAPETLLKSLNKVGAMNLSKIIEEKRYSCIISSPFTPWVPAVAASHNISCAILWIQACGAYSVYYRYYMKTNSFPDLEDLNQTVELPALPLLEVRDLPSFMLPSGGAHFYNLMAEFADCLRYVKWVLVNSFYELESEIIESMADLKPVIPIGPLVSPFLLGDGEEETLDGKNLDFCKSDDCCMEWLDKQARSSVVYISFGSMLETLENQVETIAKALKNRGLPFLWVIRPKEKAQNVAVLQEMVKEGQGVVLEWSPQEKILSHEAISCFVTHCGWNSTMETVVAGVPVVAYPSWTDQPIDARLLVDVFGIGVRMRNDSVDGELKVEEVERCIEAVTEGPAAVDIRRRAAELKRVARLALAPGGSSTRNLDLFISDITIA"}}, "assay_in_all_cases": "purified protein, by the assay type", "details_in_all_cases": "other: glucose ester formation; pH 7.0; 30.0 °C", "key": {"[1]": {"substrate": "COc1cc(/C=C/C(=O)O)ccc1O"}, "[2]": {"substrate": "O=C(O)/C=C/c1ccc(O)cc1"}, "[3]": {"substrate": "O=C(O)C=Cc1ccccc1"}}, "data": [{"protein": "B1", "values": [{"measurement": "Km", "setting": "[1]", "value": 340, "unit": "µM"}, {"measurement": "Km", "setting": "[2]", "value": 390, "unit": "µM"}, {"measurement": "Vmax", "setting": "[2]", "value": 11.10, "unit": "nkat/mg"}, {"measurement": "Km", "setting": "[3]", "value": 50, "unit": "µM"}]}]}
